assay: yeast display, Sf9 membrane polyspecificity reagent, FACS + sequencing; frameworks hold sequencing errors
In short: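 Galactose-induced (36–48 hours) yeast carrying a synthetic nanobody display library were exposed to 10% biotinylated, detergent-solubilized Sf9 membrane reagent at 4 °C for 1 hour. FACS followed streptavidin microbead enrichment, using low and high (top ~1%) gates for expression (anti-HA) and reagent binding (streptavidin). Colony PCR, MiSeq 2 × 250 sequencing and CDR-length filtering followed. Labels for polyreactivity reflect the gate of origin.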

Sequence	polyreactivity (PSR sort gate)
QVQLVESGGGLVQAGGSLRLSCAASGSIFVSNVMGWYRQSPGKERELVAAISSSGGRTNYADSVKGRFTISRDNAKNTVYLQMNSLKPEDTAVYYCAKAGRYANLPYGYWGQGTQVTVSS	high polyreactivity
QVQLVESGGGLVQAGGSLRLSCAASGSIFVSYAMGWYRQAPGKERELVAAISRSGGRTYYADSVKGRFTISRDNAKNTVYLQMNSLKPEDTAVYYCAADYTKSSSPWPGYYWGQGTQVTVSS	high polyreactivity
QVQLVESGGGLVQAGGSLRLSCAASGSIFVSYAMGWYRQAPGKERELVAAITRSGGSTYYADSVKGRFTISRDNAKNTVYLQMNSLKPEDTAVYYCAARSYLGAYRRYYWGQGTQVNVSS	high polyreactivity
QVQLVESGGGLVQAGGSLRLSCAASGSIFVSYAMGWYRQAPGKERELVAAITSIGTRTYYADSVKGRFTISRDNAKNTVYLQINSLKPEDTAVYYCNAPRFWSRHGLRDYWGQVTQVTVSS	high polyreactivity
QVQLVESGGGLVQAGGSLRLSCAASGSIFVTNAMGWYRQAPGKERELVAAIRGGGGSTYYADSVKGRFTISRDNAKNTVYLQMNSLKPEDTAVYYCNADRRGYLQSEMDYWGQGTQVTVSS	low polyreactivity
QVQLVESGGGLVQAGGSLRLSCAASGSIFVTYALGWYRQAPGKERELVAVLTWGGGSTYYADSVKGRFTISRDNAKNTVYLQMNSLKPEDTAVYYCAKDSYYYRRDVTVDYWGQGTQVTVSS	low polyreactivity
QVQLVESGGGLVQAGGSLRLSCAASGSIFVTYAMGWYRQAPGKERELVARITSGGSTYYADSVKGRFTISRDNAKNTVYLQMNSLKPEDTAVYYCAARRWLRYDLDYGGQGTQVTVSS	low polyreactivity
QVQLVESGGGLVQAGGSLRLSCAASGSIFVTYAMGWYRQAPGKERELVASISWRGVSTRYADSVKGRFTISRDNAKNTVYLQMNSLKPEDTAVDYCAAVYRRTRSGIFDYWGQGTQVTVSS	high polyreactivity
QVQLVESGGGLVQAGGSLRLSCAASGSIFVVNAMGWYRPAPGKERELVAAINWSDGSTYYADSVKGRFTISRDTAKNTVYLQLTSLKPEDTAVDYCAAEVPYFYFEGWNYDYWGQGTQVTVSS	high polyreactivity
QVQLVESGGGLVQAGGSLRLSCAASGSIFVVYAMGWYRQAPGKERELVASIRTGGSTNYADSVKGRFTISRDNAKNTVYLQMNSLKPEDTAVYYCAAASWNCNRHYYVARYYYWGQGTQVNVSS	high polyreactivity
QVQLVESGGGLVQAGGSLRLSCAASGSIFVVYAMGWYRQAPGKERELVAVITDDGSTYYADSVKGRFTISRDNAKNTVYLQMNSLKPEDTAVYYCAAEGAATPDFGSWYYYWGQGTQVTVSS	low polyreactivity
QVQLVESGGGLVQAGGSLRLSCAASGSIFVWNAMGWYIQAPRKERELVAAISYTDGSTYYADSVKGRFTISRDNAKNTVYLQMNSMNPEDTAVYYCAASTLKDIYLWFRVDYWGQCTQVTVSS	low polyreactivity
QVQLVESGGGLVQAGGSLRLSCAASGSIFVYNAMGWYRQAPGKERELVAAISQRGGSTYYADSVKGRFTISRDNAKNTVYLQMNSLKPEDTADYYCAAGPGDSGDDYWGQGTQVTVSS	low polyreactivity
QVQLVESGGGLVQAGGSLRLSCAASGSIFVYNAMGWYRQATGKEREMVAVINKSGDTTYYADSVKGRFTISRDNAKNTVYLQMNSLKPEDTAVYYCNASGEVLAAVVSYDYWGQGTQVTVSS	low polyreactivity
QVQLVESGGGLVQAGGSLRLSCAASGSIFVYYAMGWYRQAPGKERELVAAINSGSITKYADSVKGRFTISRDNAKNTVYLQMNSLKPEYTAVYYCAARYDNTYRTETSYPRYYSWGQGTQVTVSS	high polyreactivity
QVQLVESGGGLVQAGGSLRLSCAASGSIFVYYTMGWYRQAPGKVRELVATITFRGNTYYADSVKGRFTISRDNAKNTVYLQMNSLKPEDTAVSYCAATRYGHRYYYRPYEYWGQGTQVTVSS	high polyreactivity

Sequence	polyreactivity (PSR sort gate)
QVQLVESGGGLVQAGGSLRLSCAASGSIFWGNAMGWYRQAPGKERELVADISGGDTYYADSVKGRFTISRDNAKNTVYLQMNSLKPEDTAVYYCAADVWQYFYPYGYYYWGLGTQVTVSS	high polyreactivity
QVQLVESGGGLVQAGGSLRLSCAASGSIFWGYAMGWYRQAPGKERELVAAIRVSGGSTYYADSVKGRFTISRDNAKNTVYLQMNSLKPEDTAVYYCARDTWGGFSSADNYWGQGTQVTVSS	high polyreactivity
QVQLVESGGGLVQAGGSLRLSCAASGSIFWIYAMGWYRQAPGKERELVATITRRGGSTYYADSVKGRFTISRDNAKNTVYLQMNSLKPEDTAVYYCATEPGYTFLTSYKYDYWGQGTQVTVSS	low polyreactivity
QVQLVESGGGLVQAGGSLRLSCAASGSIFWLYAMGWYRQAPGKESELVAAIDSGDSTKYADSVKGRFTISRDNAKNTVYLQMNSLKPEDTAVYYCNASRRYHVRAPYDYWGQGTQVTVSS	low polyreactivity
QVQLVESGGGLVQAGGSLRLSCAASGSIFWPYAMGWYRPAPGKERELVATISWNGGSTYYADSVKGRFTISRDNAKNTVYLQMNSLKPEDTAVYYCAAEVYFNQYGGMDYWGQGTQVTVSS	low polyreactivity
QVQLVESGGGLVQAGGSLRLSCAASGSIFWPYAMGWYRQAPGKERELVAAISSSTGRTYYADSVKGRFTLSRDNEKNTVYLQMNSLKPEDTAVDYCAADIGTTSYRYYYWGQGTQVTVSS	high polyreactivity
QVQLVESGGGLVQAGGSLRLSCAASGSIFWQYAMGWYRQAPGTERELVAAISSRGGSTYYADSVKGRFTISRDNAKNTVYLQMNTLKPEDTAVYYCAAHSVVRSYAARDSGYDYWGQGTQVTVSS	high polyreactivity
QVQLVESGGGLVQAGGSLRLSCAASGSIFWRNAMGWYRQAPGKERELVAVISSGGRTYYADSVKGRFTISRDNAKNTVYLQMNSLKPEDTAVYYCAAQYHGGISQRLYYWGQGTQVTVSS	high polyreactivity
QVQLVESGGGLVQAGGSLRLSCAASGSIFWRNTMGWYRQAPGKEREFVAAISSNGGGTYYADSVKGRFTISRDKAKNTVYLQTNSLKPEDTAVYYFAATAGGSYKLWYYYWGQGTQVTVSS	high polyreactivity
QVQLVESGGGLVQAGGSLRLSCAASGSIFWRYAMGWYRQAPGKERELVATITSRGGSTYYADSVKGRFTISRDNAKNTVYLQMNSLKQEDTAVYYCAAGWLPKYGYWGQGTQVTVSS	low polyreactivity
QVQLVESGGGLVQAGGSLRLSCAASGSIFWSNAMGWYRQAPGKERELVAASSSGGSTYADSVKGRFTISRDTAKNTVYLQMNSLKPEDNAVYDCNARDYSVGRNDYWGQGTQVTVSS	low polyreactivity
QVQLVESGGGLVQAGGSLRLSCAASGSIFWSNAMGWYRQAPGKESELVATIDDDVGSTYYADSVMGRFTISRDNAKNTVYLQMNSLKPEDTAVYYCAADSVYYVIPYEYWGQGTQVTVSS	low polyreactivity
QVQLVESGGGLVQAGGSLRLSCAASGSIFWSYAMGWYIQAPGTERELVAAITTDGGTNYADSVKGRFTISLDNAKNTVYLLMKSLKPDDTAVYYCAGDTDPNPQIDYTLTMDYWGQGTEVTVSS	low polyreactivity
QVQLVESGGGLVQAGGSLRLSCAASGSIFWTYAMGWYRQAPGKEREFVAAITFNYGSTYYADSVKGRFTISRDTAKNTVYLQMNSVKPEDTAVYYCNADTWYYYNFWSYIEYDYWGQGTQVTVSS	high polyreactivity
QVQLVESGGGLVQAGGSLRLSCAASGSIFWVNAMGWYRQAPGQVSELVAAINYSDGSTSYADSVKGRFTISRDNAKNTVYLQMNSLKPEDTAVYYCNAESFELMYYWGQGTQVTVSS	low polyreactivity
